# B1: TPR t1 (parent)
# chain: GACCAAUCUGCCCUCAGAGCUCGAGAACAUCUUCGGAUGCAGAGGAGGCAGGCUUCGGUGGCGCGAUAGCGCCAACGUCCUCAACCUCCAAUGCAUCCCACCACAUGAUGAUGCCUGAAGAGCCUUGGUUUUUUG
# Variants of: B1
# Experiment: polymerase ribozyme fitness, log enrichment relative to wild type (log ratio); higher = more active; in vitro selection for triplet polymerase activity
# Summary of the method: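 Frozen incubation at −7 °C formed the core of a single, triplicate in vitro selection round applied to PCR-built, transcribed mutant libraries of each subunit of a heterodimeric triplet polymerase ribozyme. Extended constructs were gel-excised, captured with streptavidin beads and amplified by RT-PCR, and input and output libraries were Illumina-sequenced with a filter of ≥10 input reads and ≥1 read per output. Fitness is the logarithm of genotype enrichment relative to wild-type enrichment, with inverse-variance-weighted replicate averaging, and the logarithm is base 2.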
row,Variant,polymerase ribozyme fitness (log ratio)
1,GACCAACCUGCCCUCAGAGCUCGAGAACAUCUUGGGAUGCAGAGGAGGCAGGCUUCGGUGGCGCGAUACCGCCAACGUCCUCAACCUCCAAUGCAUCCCACCACAUGAUGAUGCCUGAAAAGCCUUGGUUUUUUG,-6.41
2,GACCAACCUGCCCUCAGAGCUCGAGAACAUCUUCGGAUGAAGAGGAGGCAGGCUUGGGUGGCGCGAUAGCGCCAACGUCCUCAACCUCCAAUGCAUCCCACCACAUGAUGAUGCCUGAAGAGCCUUGGUUUUUUG,-1.43
3,GACCAACCUGCCCUCAGAGCUCGAGAACAUCUUCGGAUGCAGAGGAGGCAGGCUUGGGUGGCGCGAUAGCGCCAACGCCCUCAUCCUCCAAUGCAUCCCACCACAUGAUGAUCCCUGAAGAGCCUUGGUUUUUUG,-2.73
4,GACCAACCUGCCCUCAGAGCUCGAGAACAUCUUCGGAUGCAGAGGAGGCAGGCUUCGGUGGUGCGAUAGCGCCAACGUCCUCAACCUCCAAUGCAUCCCACCACAUGAUGUUGCCUGAAGAGCCUUGGUUUUAUG,-2.88
5,GACCAACCUGCCCUCAGAGCUCGAGAACAUCUUCGGAUGCAGAGGAGGCAGGCUUCGGUGGCGCGAUAGCGCAAACGUCCUCAACCUCCAAUGCAUCCCACCACAUGAUGAUGCCUGAAGAGCCUUGGUUUUUUG,-0.286
6,GACCAACCUGCCCUCAGAGCUCGAGAACAUCUUCGGAUGCAGAGGAGGCAGGCUUCGGUGGCGCGAUAGCGCCAACGUCCUCAACCUCUAAUGCAUCCCACCACAUGAAGAUGCCUGAAGAGCCUUGGUUUUUUG,-4.17
7,GACCAACCUAGCCUCAGAGCUCGAGAACAUCUUCGGAUGCAGAGGAGGCAGGCUUCGGUGGCGCGAUAGCGCCAACGUCCUCAACCUCCAUUGCAUCCCACCACAUGAUGGUGCCUGAAGAGCCUUGGUUUUUUG,-1.99
8,GACCAACCUGCCCUCAGAUCUCGAGAACAUCUUCGGAUGCAGAGGAGGCAGGCCUCGGUGGCGCGCUAGCGCCAACGUCCUCAACCUCCAAUGCAUCCCACCACAUGAUGAUGCCUGAAGAGCCUUGGUUUUUUG,-5.92
9,GACCAACCUGCCCUCAGAUCUCGAGAACAUCUUCGGAUGCAGAGGAGGCAGGCCUCGGUGGCGCGAUAGCGGCAACGUCCUCAACCUCCAAUGCAUCCCACCACAUGAUGAUGCCUGAAGAGCCUUGGUUUUUUG,-3.1
10,GACCAACCUGCCCUCAGAGCUCGAGAACAUCUUCGGAUACAGAGGAGGCAGGCUUCGGUGGCGCGAUAGCGCCAACGUCCUCAACCUCCAAUGCAUCCCACCACAUGAUGAUGCUUGAAGAGCCUUGCUUUUUUG,-3.58
11,GACCAACCUGCCCUCAGAGCUCGAGAACAUCUUCGGAUGCACAGGAGGCAGGCUUCGGUGGCGCGAUAGCGACAACGUCCUCAACCUUCAAUGCAUCCCACCACAUGAUGAUGCUUGAAGAGCCUUGGUUUUAUG,-0.456
12,GACCAACCUGCCCUCAGAGCUCGAGAACAUCUUCGGAUGCAUAGGAAGCAGGCUUCGGUGGCGCGAUAGCGCCAACGUCCUCAACCUCCAAUGCAUCCCACCACAUGAUGAUGCCUGAAGAGCCUUGGUUUUUUG,-1.32
13,GACCAACCUGCCCUCAGAGCUCGAGAACAUCUUCGGAUGCAGAGGAGUCGGGCUUCGGUGGCGCGAUAGCGCCAACGUCCUCAACCUCUAAUGCAUCCCACCACAUGAUGAUGCCUGAAGAGCCUUGGUUUUUUG,-1.26
14,GACCAACCUGCCCUCAGAGCUCGAGAACAUCUUCGGAUGCAGAGGAGUCGGGCUUCGGUGACGCGAUAGCGCCAACGUCCUCAACCUCUAAUGCAUCCCACCACAUGAUGAUGCCUGAAGAGCCUUGGUUUUUUG,-1.71
15,GACCAACCUGCCCUCAGAGCUCGAGAACAUCUUCGGAUGCAGAGGAGGCAGGCUUCGCUGGCGCGAUAGCGCCAACGUCCUCAACCUCCACUGCAUCCCACCACAUGAUGAUGCCUGAAGAGCCUUGGUUUUUUG,-1.02
16,GACCAACCUGCCCUCAGAGCUCGAGAACAUCUUCGGAUGCAGAGGAGGCAGGCUUCGGUGGCGCGAUAGCACCAACGUCCUCAACCUCCAAUGCAUCCCACCACAUGAUGAUGCCUGAAGAGCCUUUGUUUUGUG,-1.83
17,GACCAACCUGCCCUCAGAGCUCGAGAACAUCUUCGGAUGCAGAGGAGGCAGGCUUCGGUGGCGCGAUAGCGCCAACGUCCUCAACCUCCAAUACAUCCCACCACAUGAUGAUGCCUGAAGAGCCUUGGUUUCUUG,-0.396
18,GACCAACCUGCCCACAGAGCUCGAGAACAUCUUCGGAUGCAGAGGUGGCAGGCUUCGGUGGCGCGAUAGCGCCAACGUCCUCAACCUCCAAUGCAUCCCACCACAUGAUGAUGCCUGAAGAGCCUUGGUUUUUUG,-2.65
19,GACCAACCUGCCCCCAGAGCUCGAGAACAUCUUCGGAUGCAGAGGAGGCAGGCUUCGGUGGCGCGAUAGUGCCAACGUCCUCAACCUCCAAUGCAUCCCACCACAUGAUGAUGCCUGAAGAGCCUUGGUUUUUUG,-2.11
20,GACCAACCUGCCCGCAGAGCUCGAGAACAUCUUCGGCUGCAGAGGAGGCAGGCUUCGGUGGCGCGAUAGCGCCAACGUCCUCAACCUCCAAUGCAUCCCACCACAUGAUGAUGCCUGAAGAGCCUUGGUUUUUUG,-1.12
21,GACCAACCUGCCCUCAGAGCGCGAGAACAUCUUCGGAUGCAGAGCAGGCAGGCUUCGGUGGCGCGAUAGCUCCAACGUCCUCAACCUCCAAUGCAUCCCACCACAUGAUGAUGCCUGAAGAGCCUUGGUUUUUUG,-2.5

# Reference: the RNAGym collection of RNA variant scans (doi:10.1073/pnas.2313332121)
